B1: SLC2A12 (parent)
chain: LTLVFFVQITGQPNILFYASTVLK

Variants of: B1
Assay: protein stability index of a GFP-peptide fusion (GPS, HEK-293T) (PSI 1-6); higher = more stable
Details: c terminus: a fixed tail appended
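Also: lentivirally expressed fusions sorted by FACS into six bins by GFP to DsRed ratio, PSI derived from sequencing read proportions per bin multiplied by bin number.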

Protein stability index of substitutions, site by site:
Y18: D 2.93 | F 3.63 | L 3.04 | S 3.38 | M 2.05 | K 2.6 | P 4.25
T10: S 1.67 | D 2.75 | I 3.61 | E 2.11 | A 3.42 | P 5.16 | Y 3.46
F6: H 3.02 | W 2.85 | V 3.64 | T 2.35 | G 3.11 | Q 4.18
K24: A 2.9 | L 1.12 | T 2.2 | D 2.73 | N 4.33 | H 2.21 | I 2.92 | Q 4.06 | F 3.17 | S 3.98
N14: T 3.06 | M 2.01 | I 4.38 | P 2.34 | Y 1.5 | D 3.93 | R 3.96 | A 2.73 | H 2.96 | Q 3.83
A19: R 2.55 | L 3.37 | M 2.4
V7: W 2.61 | H 3.64 | A 2.03 | K 1.59 | D 3.27
F17: K 3.38 | T 3.28 | A 1.86 | M 2.52 | H 3.19
V4: D 3.68 | G 4 | W 2.98 | P 2.67 | N 2.73 | Y 2.54 | M 2.09
Q12: I 2.73 | D 2.94 | Y 2.33 | K 3.74 | E 2.25 | M 3.94 | S 2.21 | N 1.94 | R 2.64
I9: F 2.63 | R 3.42 | H 4.79 | T 3.18 | N 3.06 | G 2.45 | A 2.57 | E 4.04 | S 3.01 | M 3.4
L23: T 3.09 | R 3.18 | S 3.26 | M 3.81 | E 2.83 | W 1.83 | H 2.38 | Y 3.92 | V 2.58
G11: V 2.45 | T 2.29 | S 2.87 | L 2.33 | F 2.92 | D 3.42 | C 2.58 | P 3.28
L3: A 3.64 | T 4.46 | G 2.17 | V 4.79 | Q 3.25 | R 2.29 | W 4.1 | M 3.15 | Y 2.54
S20: I 4.31 | G 3.23 | N 2.84 | A 2.52 | P 2.92 | K 3.97 | M 2.78
L1: A 2.8 | R 1.8 | D 2.23 | S 3.18 | K 2.96 | T 3.79 | F 4.63 | P 2.54 | V 2.75
F5: T 1.96 | E 2.7 | P 3.32 | I 2.45 | V 2.47
T21: W 3.97 | N 3.31 | L 2.38 | Q 2.97 | I 3.71 | P 3.23 | S 3.13
T2: Y 3.04 | A 2.61 | I 4.67 | K 3.54 | S 3.26 | W 2.96 | D 2.45 | E 1.69
I15: Y 3.83 | K 2.67 | Q 2.46
L16: R 3.61 | G 2.02 | H 1.6 | C 2.98
V22: D 3.37 | Q 4.34 | P 3.9 | C 2.2 | R 3.38 | N 2.78 | S 1.93
P13: S 3.1 | T 2.59 | H 3.43 | R 3.44 | G 5.6 | A 3.85
Q8: E 3.4 | L 2.46 | A 4.06 | S 2.51 | P 2.51 | I 3.94
